Measured values reported in patent US20200331991A1.

What was measured:
[1] = target: human α-CGRP K35A (19-37) (human); test: Biacore 25 C, Fab over peptide on SA chip; KD ratio to parent 19-37
[2] = target: human α-CGRP V28A (25-37) (human); test: Biacore 25 C, Fab over peptide on SA chip; KD ratio to parent 25-37
[3] = target: human α-CGRP P29A (25-37) (human); test: as above
[4] = target: human α-CGRP V32A (25-37) (human); test: as above
[5] = target: human α-CGRP N31A (25-37) (human); test: as above
[6] = target: human α-CGRP T30A (25-37) (human); test: as above
[7] = target: human α-CGRP S34A (25-37) (human); test: as above
[8] = target: human α-CGRP G33A (25-37) (human); test: as above
[9] = target: human α-CGRP F27A (25-37) (human); test: as above

KD (mutant/parent) [1]: 0.3
KD (mutant/parent) [2]: 0.8
KD (mutant/parent) [3]: 0.2
KD (mutant/parent) [4]: 0.9
KD (mutant/parent) [5]: 0.3
KD (mutant/parent) [6]: 0.2
KD (mutant/parent) [7]: 0.8
KD (mutant/parent) [8]: 1.3
KD (mutant/parent) [9]: 0.8
Substance: anti-CGRP antibody 4901, Fab fragment
